Data reported in paper PMC2828450, “Crystal structure of the signaling helix coiled-coil domain of the β1 subunit of the soluble guanylyl cyclase” (BMC Structural Biology, 2010).
Values joined by “and” are separate entries in the source; they are usually repeats but may differ in a detail not shown here. Equal entries are not always repeated.

Tests used:
[1] = target: sGC beta1 H-NOXA domain H-NOXA (UniProt Q02153); conditions: cited from earlier work
[2] = target: sGC beta1 catalytic domain catalytic domain (UniProt Q02153); conditions: cited from earlier work
[3] = target: the molecule itself; assay: SEC; analytic gel filtration on a Superdex 75 column calibrated with Mw standards, before crystallization; major 38.5 kD and minor 19.5 kD species

sGC beta1 H-NOXA domain H-NOXA (from UniProt Q02153)
Kd [1]: < 60 µM

sGC beta1 catalytic domain catalytic domain (from UniProt Q02153)
Kd [2]: 6 µM

B1: Rattus norvegicus soluble guanylyl cyclase β1 subunit coiled-coil domain, residues 348-409, I371M (domain or fragment)
chain: GSHMATRDLVLLGEQFREEYKLTQELEMLTDRLQLTLRALEDEKKKTDTLLYSVLPPSVANELRHK
modifications: not fully specified (residues 4, 28); printed as gshmATRDLVLLGEQFREEYKLTQELE**M**LTDRLQLTLRALEDEKKKTDTLLYSVLPPSVANELRHK; also: expressed with selenomethionine (Met replaced by SeMet)
notes: N-terminal cloning artefact left after thrombin cleavage of the pET15b tag; The printed calculated mass of 7712.86 Da fits GSHM + 348-409 with I371M (my calculation; wild type would be about 7694.8 Da), and only the I371M construct's purification is described; One molecule is therefore used for all three experiments; also called sGCβ1 CC; rsGCβ1 CC domain; source: E. coli BL21 (DE3) pLysS, …
stoichiometry N [3]: 4 and 2
